Laboratory results from publication PMC10656745 (ACS synthetic biology, 2022).

Target: the molecule itself
Assay: native gel or EMSA

B1: wild-type GstA (glutathione S-transferase, PP_1162) of Pseudomonas putida KT2440 (enzyme, UniProt Q88NP5 1-209, looked up)
chain: MSNPIKLYNFPKSGHAHRIELMLSLLNLPTELVFVDLAKGAHKQPDFLALNPFGQVPVIDDNGTVIADSNAILVYLAKKYDNGTWLPEEPAAAARVQRWLSVAAGPLAFGPAAARLVTVFGASFNTDEVISRAHTLLKVIDAELANTPFLTGSTPTIADIANYSYIAHAPEGNVSLEPYANVRNWLARIEALPRFVPMPRTVIGLQTHA
- stoichiometry N: 2
